Assay results reported in the DeepSol protein solubility set.

Assay: soluble on expression in E. coli; label from the status in PepcDB or PDB records

**Q.** Which “soluble on expression in E. coli” value does the source give for “MSLSFNADEVRFLIDNLPDIDAATGDLALTKKTMISDVAALRARFGEHGRAVAELAGARRSVAGKLPVDWLMCHDSAQQATPMQVSGVRARRLVTALGEGTTAVDVTCSIGTEGHAVGQVGMGYIGSDLDQARLLMARYNLGGGVDKHPPHLLRADALAPAVTGADVIIADPARRAGGRRITDPAQLLPPLPDLLTAWEGHAMAVKCAPGLDFSGWTGLVSLVSVDGGVKEACLYTPDLADGETREAVILRGDRMDRITDALDDAPGEQLAREPGEFIIDPDGAVVRAGLVRHYAVREGLWMLDERIAYLTGDRIPAGTSGFRFIEQVPLKKLKGALTAHGAGSVEILVRGVDVDPDQLRKKLGLKGDRAMSVVITRIGSAGVALVCGAREWNGEGHHHHHH” here?
**A.** Its value is “soluble”.

**Q.** With “MAGDPMNEEQRKASSVDVLAERDKKAEKDYSKYFEHVYQPPNLKEAKKRGKQEVRYNRDFQIDEKYRGMGNERTFLIKTYGCQMNAHDTEVIAGILEALGYQATTDINTADVILINTCAIRENAENKVFSEIGNLKHLKKERPDILIGVCGCMSQEESVVNKILKSYQNVDMIFGTHNIHHLPEILEEAYLSKAMVVEVWSKEGDVIENLPKVREGNIKAWVNIMYGCDKFCTYCIVPFTRGKERSRRPEDIIDEVRELAREGYKEITLLGQNVNSYGKDLQDIEYDLGDLLQAISKIAIPRVRFTTSHPWDFTDHMIDVISEGGNIVPHIHLPVQSGNNAVLKIMGRKYTRESYLDLVKRIKDRIPNVALTTDIIVGYPNESEEQFEETLTLYDEVGFEHAYTYLYSQRDGTPAAKMKDNVPLNVKKERLQRLNKKVGHYSQIAMSKYEGQTVTVLCEGSSKKDDQVLAGYTDKNKLVNFKAPKEMIGKLVEVRIDEAKQYSLNGSFVKEVEPEMVIQLEHHHHHH” as the sequence, how does the “soluble on expression in E. coli” value read?
**A.** Its value is “soluble”.

**Q.** For “MSTGITYDEDRKTQLIAQYESVREVVNAEAKNVHVNENASKILLLVVSKLKPASDIQILYDHGVREFGENYVQELIEKAKLLPDDIKWHFIGGLQTNKCKDLAKVPNLYSVETIDSLKKAKKLNESRAKFQPDCNPILCNVQINTSHEDQKSGLNNEAEIFEVIDFFLSEECKYIKLNGLMTIGSWNVSHEDSKENRDFATLVEWKKKIDAKFGTSLKLSMGMSADFREAIRQGTAEVRIGTDIFGARPPKNEARII”, which “soluble on expression in E. coli” value is on record?
**A.** Its value is “soluble”.

**Q.** Which “soluble on expression in E. coli” value does the source give for “SIVADSECRAELKDYLRFAPGGVGDSGPGEEQRESRARRGPRGPSAFIPVEEVLREGAESLEQHLGLEALMSSGRVDNLAVVMGLHPDYFTSFWRLHYLLLHTDGPLASSWRHYIAIMAAARHQCSYLVGSHMAEFLQTGGDPEWLLGLHRAPEKLRKLSEINKLLAHRPWLITKEHIQALLKTGEHTWSLAELIQALVLLTHCHSLSSFVFGCGILPEGDADGSPAPQAPTPPSEQSSPPSRDPLNNSGGFESARDVEALMERMQQLQESLLRDEGTSQEEMESRFELEKSESLLVTPSADILEPSPHPDMLCFVEDPTFGYEDFTRRGAQAPPTFRAQDYTWEDHGYSLIQRLYPEGGQLLDEKFQAAYSLTYNTIAMHSGVDTSVLRRAIWNYIHCVFGIRYDDYDYGEVNQLLERNLKVYIKTVACYPEKTTRRMYNLFWRHFRHSEKVHVNLLLLEARMQAALLYALRAITRYMT” here?
**A.** The value was “not soluble”.

**Q.** For “GSSGSSGGEIIEGCRLPVLRRNQDNEDEWPLAEILSVKDISGRKLFYVHYIDFNRRLDEWVTHERLDLKKIQFPKKEAKTPSGPSSG”, which “soluble on expression in E. coli” value is on record?
**A.** Its value is “soluble”.

**Q.** Which “soluble on expression in E. coli” value does the source give for “MGSDKIHHHHHHMLKHFGSKVRNLRVTRNITREDFCGDETELSVRQLARIESGQSIPNLTKAHYIAKQLNVKLDILTGGESLELPKRYKELKYLILRIPTYADAERLKLRECQFDHIFEEFYDNLPEDECLAIDSLQAKFEVYQTGDINFGVEVLCECFDKVKYKEKYTLNDLIIIDLFLTCAVVSKFNNRAFTKEVFQTICKTLISQNHKLTAEDLFWFNHVLLNCVFVGLCLNSEECLAEMLEVSRQTMVSTHDFHKMPLYFMYQWKYFITIDNDIKSAENAYQQSIMFSKMIDDKHLIKKLELEWQEDITGH” here?
**A.** Its value is “not soluble”.

**Q.** For “MCGDCVEKEYPNRGNTCLENGSFLLNFTGCAVCSKRDFMLITNKSLKEEDGEEIVTYDPDLCKNCHHVIARHEYTFSIMDEFQEYTMLCLLCAKPKILSVFSLMTPDKLEHHHHHH”, which “soluble on expression in E. coli” value is on record?
**A.** Its value is “soluble”.

**Q.** With “MGNFTFEEMNLMCIYNTGSRTGLIDSLREMRGELSPEETELRELTDSALTKLCAMTDEDFAQLELYPDFDQLEHHHHHH” as the sequence, how does the “soluble on expression in E. coli” value read?
**A.** The value was “soluble”.
